± gives the uncertainty stated by the source.
Test: abundance fitness (aPCA) (normalised: wild type 0, dead -1); higher = more abundant; growth selection in yeast, the domain comes from the species named
Details: Homo sapiens

Substance	abundance fitness
DnaJ homolog subfamily B member 1 N36Y, P25685	-0.195 ± 0.11
DnaJ homolog subfamily B member 1 P33A, P25685	-0.055 ± 0.075
DnaJ homolog subfamily B member 1 P33C, P25685	-0.11 ± 0.1
DnaJ homolog subfamily B member 1 P33E, P25685	-0.096 ± 0.087
DnaJ homolog subfamily B member 1 P33F, P25685	-0.207 ± 0.093
DnaJ homolog subfamily B member 1 P33G, P25685	0.017 ± 0.064
DnaJ homolog subfamily B member 1 P33H, P25685	-0.292 ± 0.15
DnaJ homolog subfamily B member 1 P33I, P25685	-0.085 ± 0.097
DnaJ homolog subfamily B member 1 P33L, P25685	-0.091 ± 0.056
DnaJ homolog subfamily B member 1 P33M, P25685	0.039 ± 0.079
DnaJ homolog subfamily B member 1 P33N, P25685	-0.009 ± 0.094
DnaJ homolog subfamily B member 1 P33Q, P25685	0.057 ± 0.1
DnaJ homolog subfamily B member 1 P33R, P25685	-0.06 ± 0.078
DnaJ homolog subfamily B member 1 P33S, P25685	0.018 ± 0.083
DnaJ homolog subfamily B member 1 P33V, P25685	-0.078 ± 0.076
DnaJ homolog subfamily B member 1 P33W, P25685	-0.455 ± 0.096
DnaJ homolog subfamily B member 1 P33Y, P25685	-0.245 ± 0.11
DnaJ homolog subfamily B member 1 P39A, P25685	-0.037 ± 0.074
DnaJ homolog subfamily B member 1 P39C, P25685	-0.016 ± 0.15
DnaJ homolog subfamily B member 1 P39D, P25685	-0.339 ± 0.27
DnaJ homolog subfamily B member 1 P39E, P25685	0.064 ± 0.097
DnaJ homolog subfamily B member 1 P39F, P25685	-0.041 ± 0.2
DnaJ homolog subfamily B member 1 P39G, P25685	-0.287 ± 0.16
DnaJ homolog subfamily B member 1 P39H, P25685	0.054 ± 0.28
DnaJ homolog subfamily B member 1 P39I, P25685	-0.038 ± 0.15

Substance	abundance fitness
DnaJ homolog subfamily B member 1 P39K, P25685	0.027 ± 0.14
DnaJ homolog subfamily B member 1 P39N, P25685	0.035 ± 0.12
DnaJ homolog subfamily B member 1 P39R, P25685	0.041 ± 0.1
DnaJ homolog subfamily B member 1 P39S, P25685	-0.078 ± 0.069
DnaJ homolog subfamily B member 1 P39T, P25685	0.133 ± 0.13
DnaJ homolog subfamily B member 1 P39V, P25685	0.001 ± 0.12
DnaJ homolog subfamily B member 1 P39W, P25685	0.026 ± 0.12
DnaJ homolog subfamily B member 1 P39Y, P25685	-0.222 ± 0.14
DnaJ homolog subfamily B member 1 P58A, P25685	-0.081 ± 0.09
DnaJ homolog subfamily B member 1 P58C, P25685	-0.256 ± 0.22
DnaJ homolog subfamily B member 1 P58D, P25685	-0.332 ± 0.14
DnaJ homolog subfamily B member 1 P58E, P25685	-0.149 ± 0.086
DnaJ homolog subfamily B member 1 P58F, P25685	-0.407 ± 0.25
DnaJ homolog subfamily B member 1 P58G, P25685	-0.238 ± 0.079
DnaJ homolog subfamily B member 1 P58H, P25685	-0.192 ± 0.19
DnaJ homolog subfamily B member 1 P58I, P25685	-0.256 ± 0.16
DnaJ homolog subfamily B member 1 P58K, P25685	0.021 ± 0.31
DnaJ homolog subfamily B member 1 P58L, P25685	-0.163 ± 0.057
DnaJ homolog subfamily B member 1 P58N, P25685	-0.306 ± 0.2
DnaJ homolog subfamily B member 1 P58Q, P25685	-0.18 ± 0.097
DnaJ homolog subfamily B member 1 P58R, P25685	-0.11 ± 0.073
DnaJ homolog subfamily B member 1 P58S, P25685	-0.112 ± 0.089
DnaJ homolog subfamily B member 1 P58T, P25685	-0.143 ± 0.14
DnaJ homolog subfamily B member 1 P58V, P25685	-0.191 ± 0.094
DnaJ homolog subfamily B member 1 P58W, P25685	-0.236 ± 0.085

Substance	abundance fitness
DnaJ homolog subfamily B member 1 P58Y, P25685	-0.229 ± 0.13
DnaJ homolog subfamily B member 1 Q7A, P25685	-0.386 ± 0.12
DnaJ homolog subfamily B member 1 Q7C, P25685	0.031 ± 0.13
DnaJ homolog subfamily B member 1 Q7E, P25685	-0.547 ± 0.13
DnaJ homolog subfamily B member 1 Q7F, P25685	0.066 ± 0.11
DnaJ homolog subfamily B member 1 Q7G, P25685	-0.315 ± 0.21
DnaJ homolog subfamily B member 1 Q7H, P25685	-0.246 ± 0.15
DnaJ homolog subfamily B member 1 Q7I, P25685	-0.144 ± 0.17
DnaJ homolog subfamily B member 1 Q7K, P25685	-0.014 ± 0.12
DnaJ homolog subfamily B member 1 Q7L, P25685	-0.049 ± 0.057
DnaJ homolog subfamily B member 1 Q7N, P25685	0.019 ± 0.13
DnaJ homolog subfamily B member 1 Q7P, P25685	-0.567 ± 0.088
DnaJ homolog subfamily B member 1 Q7R, P25685	-0.185 ± 0.071
DnaJ homolog subfamily B member 1 Q7S, P25685	-0.286 ± 0.081
DnaJ homolog subfamily B member 1 Q7T, P25685	-0.008 ± 0.078
DnaJ homolog subfamily B member 1 Q7V, P25685	-0.307 ± 0.087
DnaJ homolog subfamily B member 1 Q7W, P25685	-0.207 ± 0.15
DnaJ homolog subfamily B member 1 Q7Y, P25685	0.022 ± 0.13
DnaJ homolog subfamily B member 1 Q27A, P25685	-0.15 ± 0.11
DnaJ homolog subfamily B member 1 Q27C, P25685	0.012 ± 0.14
DnaJ homolog subfamily B member 1 Q27D, P25685	0.003 ± 0.15
DnaJ homolog subfamily B member 1 Q27E, P25685	-0.231 ± 0.36
DnaJ homolog subfamily B member 1 Q27F, P25685	-0.115 ± 0.13
DnaJ homolog subfamily B member 1 Q27G, P25685	-0.277 ± 0.093
DnaJ homolog subfamily B member 1 Q27H, P25685	-0.168 ± 0.18
